Assay results: paper PMC3728920, “In situ structural analysis of the Yersinia enterocolitica injectisome” (eLife, 2013)

Target: the molecule itself
Experiment: cryo-EM structure; cryo-electron tomography and sub-volume averaging (~3 nm) of purified YscC (0.2 mg/ml) reconstituted into liposomes of E. coli polar lipids at 5:1 lipid-to-protein ratio; oligomers isolated beforehand in DDM by sucrose gradient, MonoQ and Superose 6 gel filtration

B1: YscC (outer membrane secretin of the Yersinia enterocolitica injectisome) (natural protein)
chain: QELDWLPIPYVYVAKGESLRDLLTDFGANYDATVVVSDKINDKVSGQFEHDNPQDFLQHIASLYNLVWYYDGNVLYIFKNSEVASRLIRLQESEAAELKQALQRSGIWEPRFGWRPDASNRLVYVSGPPRYLELVEQTAAALEQQTQIRSEKTGALAIEIFPLKYASASDRTIHYRDDEVAAPGVATILQRVLSDATIQQVTVDNQRIPQAATRASAQARVEADPSLNAIIVRDSPERMPMYQRLIHALDKPSARIEVALSIVDINADQLTELGVDWRVGIRTGNNHQVVIKTTGDQSNIASNGALGSLVDARGLDYLLARVNLLENEGSAQVVSRPTLLTQENAQAVIDHSETYYVKVTGKEVAELKGITYGTMLRMTPRVLTQGDKSEISLNLHIEDGNQKPNSSGIEGIPTISRTVVDTVARVGHGQSLIIGGIYRDELSVALSKVPLLGDIPYIGALFRRKSELTRRTVRLFIIEPRIIDEGIAHHLALGNGQDLRTGILTVDEISNQSTTLNKLLGGSQCQPLNKAQEVQKWLSQNNKSSYLTQCKMDKSLGWRVVEGACTPAQSWCVSAPKRGVL
notes: YscC, secretin of the Ysc injectisome, Yersinia enterocolitica E40; full-length yscC with a stop codon amplified from the pYVe40 plasmid and cloned into pBAD/mycHisA (pMA6); The signal peptide is probably cut on export (surmise); The introduction cites 12-15 subunits for secretin rings; also called secretin YscC; YscC oligomers
  binding result: binds
